The subject of data set [1] is TIB214, an IL15 sensitive cell line. As to the kind of experiment: SADA-Cytokine dependent proliferation. In kind it is cell-based. The text has this: (§1) […] to FIG. 11D depict in vitro activity of P53-Cytokine, P63-Cytokine and P73-Cytokine SADA-Cytokines. FIG. 11A depicts a graph showing SADA-Cytokine dependent proliferation. The dose dependent proliferative response of TIB214 cells to each of P53-Cytokine (circles), P63-Cytokine (squares) and P73-Cytokine (triangles) is shown. FIG. 11B depicts a graph showing NK Cell cytotoxicity improvement from SADA-Cytokine stimulation. Bar graph summarizes peak cytotoxicity improvement from exposure of human NK cells to each SADA-Cytokine for 3 days. Cytotoxicity was assessed over a 4 hr period using a GD2(+) cell line that is sensitive to NK mediated killing and an anti-GD2 IgG (Ahmed, M. et al. (2015) OncoImmunology). Control (black bar), P53-Cytokine (medium gray bar), P63-Cytokine (dark gray bar) and P73-Cytokine (light gray bar). FIG. 11C depicts a graph showing T Cell cytotoxicity improvement from SADA-Cytokine stimulation. Bar graph summarizes peak cytotoxicity improvement from exposure of human T cells to each SADA-Cytokine for 3 days. Cytotoxicity was assessed over a 4 hr period using a GD2(+) cell line and a T-cell engaging anti-GD2 IgG-scFv bispecific (Xu, H. et al. (2015) Cancer immunology research). Control (black bar), P53-Cytokine (medium gray bar), P63-Cytokine (dark gray bar) and P73-Cytokine (light gray bar). FIG. 11D depicts a graph showing tumor growth in DKO mice with GD2(+) tumors implanted subcutaneously. Each mouse was treated with PBMCs (gray triangles) and a low dose of an anti-tumor IgG-scFv (Xu, H. et al. (2015) Cancer immunology research) and additional cytokines. Untreated tumors grew out very quickly (black lines). Tumors treated with the IgG-scFv and an Fc-Cytokine (Liu et al. 2016 JBC, http://www.jbc.org/content/291/46/23869) with a mutation to improve binding (light gray line) shrunk tumors slower than mice treated with the IgG-scFv and SADA-Cytokine (dark gray line).
(§2) This example documents the in vitro activity of exemplary SADA-cytokine multimers. […] Additionally, each complex could prime effector immune cells to kill more strongly. […]

The next data set deals with Human NK cells. As to the kind of experiment: NK cell cytotoxicity improvement from SADA-Cytokine stimulation. Format: cell-based. The note with it: 1 nM for three days; cytotoxicity over a 4 hr period.
Source text: as §1, §2

The test system of a further data set is human T cells. Nature of the data set: T cell cytotoxicity improvement from SADA-Cytokine stimulation. In kind it is cell-based. The conditions noted are these: incubated three days; cytotoxicity over a 4 hr period, GD2(+) cell line.
Source text: as §1, §2

A short description of data set [2]: Blood and tumor activity after P53-BiDE(noHIS) and 177Lu-Bn-DOTA administration (FIG. 6A, 6D, 6E). Format: in vivo, mice. The conditions noted are these: mouse, in vivo. The method, then:
FIG. 6A to FIG. 6E depict pharmacokinetics of exemplary SADA-BiDE constructs in vivo. FIG. 6A depicts activity over time after P53-BiDE(noHIS) and Bn-DOTA administration. Each line represents one group, with three mice per group. Triangles denote a group that received P53-BiDE(noHIS) followed by clearing agent (CA) 72 hours later. Squares denote a group that received P53-BiDE(noHIS) without any clearing agent before ^177Lu-Bn-DOTA administration. Circles denote a group that only received ^177Lu-Bn-DOTA but not any SADA-BiDE. Dashed lines correspond to the measured blood activity, while solid lines correspond to the activity measured in the tumor. […] FIG. 6B depicts blood activity of radiolabeled 131I-SADA-BiDE in tumor-free mice. Activity measurements were normalized to the initial measurement for each group. Each line represents one group, with 4-5 mice per group. (+) symbols denote P53-BiDE, (X) symbols denote P63-BiDE and circles denote P73-BiDE. FIG. 6C depicts blood activity in tumor bearing mice treated with either IgG-BiDE (Cheal, S. M. et al. (2014) Mol Cancer Ther) or SADA-BiDE and then injected with ^177Lu-Bn-DOTA. Each line represents one group, with 3-5 mice per group. Circles denote a group that received IgG-BiDE (Cheal, S. M. et al. (2014) Mol Cancer Ther) followed by clearing agent 48 hrs later. Squares denote a group that received P53-BiDE. Diamonds denote a group that received P63-BiDE. Hexagons denote a group that received P73-BiDE. No SADA-BiDE treated mice received any clearing agent. A representative anti-tumor IgG and ^177Lu-Bn-DOTA alone clearance curves were added as a reference. (+) symbols with a dotted line denote the ^124I-labeled anti-GD2 IgG, and (x) symbols with a dotted line denote ^177Lu-Bn-DOTA alone. […]
Importantly, even though, as described in the previous examples, P53-BIDE(NOHIS), P53-BiDE, P63-BiDE and P73-BiDE is rapidly cleared from the serum, total tumor uptake of was not affected. With both 24 hours and 72 hours between P53-BIDE(NOHIS) and ^177Lu-Bn-DOTA injections, significant activity (˜15% ID/g) was measured at the tumor site (FIG. 6D) […]

In another data set the test system is tumors. In kind it is in vivo, mice. The method, then: FIG. 8A and FIG. 8B depict tumor responses after treatment with a SADA-BiDE construct P53-BIDE(NOHIS) in vivo. FIG. 8A depicts a graph showing the change in tumor volume after administration of 1 (circles) or 4 (squares) doses of P53-BiDE. As a reference other mice were also treated with IgG-BiDE (Cheal, S. M. et al. (2014) Mol Cancer Ther) and clearing agent (triangles). FIG. 8B provides images of an exemplary mouse treated with a single dose of P53-BIDE(NOHIS) from the experimental data shown in FIG. 8A. Images are shown of the mouse on days 1, 8 and 15 with a box around the site of the tumor.
In mice with significant tumor burden (>500 mm^3 tumor volumes) a single 250 μg (1.25 nmol) dose of P53-BIDE(NOHIS) was administered followed 24 hour later by administration of 2mCi of ^177Lu-Bn-DOTA.

B1: P53-Cytokine: IL15Rα, huP53-tet, IgG3 spacer; associates non-covalently with soluble IL15; SEQ ID NO: 57 (protein)
chain: ITCPPPMSVEHADIWVKSYSLYSRERYICNSGFKRKAGTSSLTECVLNKATNVAHWTTPSLKCIRTPLGDTTHTSGKPLDGEYFTLQIRGRERFEMFRELNEALELKDAQAGKEPGGSGGAPHHHHHH
With B1, the “proliferation of TIB214 relative to untreated control cells” value in data set [1] was “robust proliferation”. For the same molecule, the “NK cell cytotoxic response against a GD2(+) neuroblastoma cell line” value (shortened to “NK cell cytotoxic response”) in the data set with Human NK cells was “increased antibody-independent cytotoxic response”. Moreover, the “IgG-scFv dependent killing of tumor cells by T cells” value (from here on “IgG-scFv dependent killing”) in the data set with human T cells was “strongly increased IgG-scFv dependent killing”.

B2: P63-Cytokine: IL15Rα, huP63-tet, IgG3 spacer; associates non-covalently with soluble IL15; SEQ ID NO: 59 (protein)
chain: ITCPPPMSVEHADIWVKSYSLYSRERYICNSGFKRKAGTSSLTECVLNKATNVAHWTTPSLKCIRTPLGDTTHTSGRSPDDELLYLPVRGRETYEMLLKIKESLELMQYLPQHTIETYRQQQQQQHQHLLQKQGGSGGAPHHHHHH
Consider B2, for which, in data set [1], the “proliferation of TIB214 relative to untreated control cells” value is “robust proliferation”. Further, the “NK cell cytotoxic response” value with Human NK cells was “increased antibody-independent cytotoxic response”. The “IgG-scFv dependent killing” value in the data set on human T cells is recorded as “strongly increased IgG-scFv dependent killing”.

B3: P53-BiDE(noHIS): hu3F8-scFv, huC825-scFv, huP53-tet, GS linker, IgG3 spacer, lacks terminal HIS tag; SEQ ID NO: 17 (protein)
chain: EIVMTQTPATLSVSAGERVTITCKASQSVSNDVTWYQQKPGQAPRLLIYSASNRYSGVPARFSGSGYGTEFTFTISSVQSEDFAVYFCQQDYSSFGCGTKLEIKRGGGGSGGGGSGGGGSQVQLVESGPGVVQPGRSLRISCAVSGFSVTNYGVHWVRQPPGKCLEWLGVIWAGGITNYNSAFMSRLTISKDNSKNTVYLQMNSLRAEDTAMYYCASRGGHYGYALDYWGQGTLVTVSSGGGGSGGGGSGGGGSGGGGSHVQLVESGGGLVQPGGSLRLSCAASGFSLTDYGVHWVRQAPGKGLEWLGVIWSGGGTAYNTALISRFTISRDNSKNTLYLQMNSLRAEDTAVYYCARRGSYPYNYFDAWGCGTLVTVSSGGGGSGGGGSGGGGSQAVVTQEPSLTVSPGGTVTLTCGSSTGAVTASNYANWVQQKPGQCPRGLIGGHNNRPPGVPARFSGSLLGGKAALTLLGAQPEDEAEYYCALWYSDHWVIGGGTKLTVLGTPLGDTTHTSGKPLDGEYFTLQIRGRERFEMFRELNEALELKDAQAGKEPGGSGGA
Regarding B3, in data set [2], the “activity measured at the tumor site” value is roughly 15 % ID/g, the “clearance from blood without clearing agent” value was “almost completely cleared” and the “retention at the target site” value is on record as “stably retained at the target site”. Besides, the “clinical or histologic toxicity” value in the data set on tumors (mouse, in vivo) is recorded as “did not induce any clinical or histologic toxicity”. Also, the tumor response entry in the data set with tumors (tumor volumes >500 mm^3, single 250 μg (1.25 nmol) dose, 2mCi 177Lu-Bn-DOTA 24 hour later, no CA) is recorded as “completely ablate tumors in all four mice treated”.

B4: P73-Cytokine: IL15Rα, huP73-tet, IgG3 spacer; associates non-covalently with soluble IL15; SEQ ID NO: 61 (protein)
chain: ITCPPPMSVEHADIWVKSYSLYSRERYICNSGFKRKAGTSSLTECVLNKATNVAHWTTPSLKCIRTPLGDTTHTSGRHGDEDTYYLQVRGRENFEILMKLKESLELMELVPQPLVDSYRQQQQLLQRPGGSGGAPHHHHHH
For B4, the “proliferation of TIB214 relative to untreated control cells” value in data set [1] was “robust proliferation”. The “NK cell cytotoxic response” value with Human NK cells is “increased antibody-independent cytotoxic response”. Moreover, the “IgG-scFv dependent killing” value in the data set with human T cells is “strongly increased IgG-scFv dependent killing”.

The values are drawn from patent US11583588B2, “Modular self assembly disassembly (SADA) technologies” (MEMORIAL SLOAN KETTERING CANCER CENTER, priority 2017, dated 2023).
